Measurements from the nanobody polyreactivity screen of Harvey et al. (2022).

test: yeast display, Sf9 membrane polyspecificity reagent, FACS + sequencing; frameworks hold sequencing errors
Outline: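 A synthetic nanobody library was expressed on Saccharomyces cerevisiae BJ5465 by galactose induction for 36–48 hours. The library was stained for 1 hour at 4 °C with 10% biotinylated, detergent-solubilized Sf9 membrane reagent and enriched with streptavidin microbeads before FACS. Low and high (top ~1%) gates were set on anti-HA fluorescence for expression and streptavidin fluorescence for reagent binding, and each polyreactivity label reflects the gate of origin.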

| Sequence | polyreactivity (PSR sort gate) |
| --- | --- |
| QVQLVESGGGLVQAGGSLRLSCAASGSIFYYNAMGWYRQAPGKERELVAAITRSGGRTYYADSVKGRFTISRDNAKTTVYLQMNSLKPEDTAVYSCAARSAGPVTTLKYYYWGHGTQVTVSS | high polyreactivity |
| QVQLVESGGGLVQAGGSLRLSCAASGSIFYYNAMGWYRQAPGKERELVATIRTSGGSTYYADSVKGRFTISRDNAKNTVYLQMNSLKPVDTAVYYCAARDLRKLYSRYPYYYWGQGTQVTVSS | high polyreactivity |
| QVQLVESGGGLVQAGGSLRLSCAASGSIFYYNAMGWYRQEPGKERELVATITSAVSTNYADSVKGRFTISRDNAKNTVYLQMNSLKPEDTAVYYCATVYSLSFELDYWGQGTQVTVSS | low polyreactivity |
| QVQLVESGGGLVQAGGSLRLSCAASGSIFYYNVMGWYRQAPGKERELVAAIDIDGSTYYADSVKGRFTISRDNAKNTVYLQMNSLKPEDTAVYYCNAQAPYWFSFYSDHKYDYWGQGTQVTVSS | low polyreactivity |
| QVQLVESGGGLVQAGGSLRLSCAASGSIFYYYAMGRYRQAPGKERELVAAISSGGDTHYADSVKGRFTISRDNAKNTVYLQMNSLKPEDTAVFYCAAQRRYHQDTTIGPGNYYYWGQGTQVTVSS | low polyreactivity |
| QVQLVESGGGLVQAGGSLRLSCAASGSIFYYYAMGWYRQAPGKEREFVAAITKRADRTYYADSVKGRFTISRDNAKNTVYLQMNSLKPEDTAVYYCNADFVWRNGYLGFYRYDYWGQGTQVTVSS | low polyreactivity |
| QVQLVESGGGLVQAGGSLRLSCAASGSIFYYYAMGWYRQAPGKERELVAAISRNGGSTSYADSVKGRFTISRDNAKNTVYLQMNSLKPEDTAVYYCNTYGGYKYDYWGQGTQVTVSS | low polyreactivity |
| QVQLVESGGGLVQAGGSLRLSCAASGSIFYYYAMGWYRQAPGKERELVAAISWCGGSTYYADSVKGRFTISRDNAKNTVYLQMNSLKPEDTAVYYCAAQRRYGDDYWGQGTQVTVSS | high polyreactivity |
| QVQLVESGGGLVQAGGSLRLSCAASGSIFYYYAMGWYRQAPGKERELVADISISGGSTYYADSVKGRFTISRDNAKNTVYLQMNSLKPEDTAVYYCAATDYLWEPTVSNWGYTFDSWGQGTQVTVSS | low polyreactivity |
| QVQLVESGGGLVQAGGSLRLSCAASGSIFYYYVMGWYRQAPGKEREFVAAISWGGDSTYYADSVKGRFTISRDNAKNTVYLQMNSLKPEDTAVYYCAAVRYNSRVSTTPSEMYYWGQGTQVTVSS | low polyreactivity |
| QVQLVESGGGLVQAGGSLRLSCAASGSIFYYYVMGWYRQAPGKERELVAAISSGGGTNYADSVKGRFTISRDNAKNTVYLQLNRLKPEDTAVYYCAKASAYGLANDYDYWGQGTLVTVSS | low polyreactivity |
| QVQLVESGGGLVQAGGSLRLSCAASGSIGYYVMGWYRQAPGKERELVAVITFGGASTYYADSVKGRFTISRDNAKNTVYLQMNSLKPEDTAVYYCARYQHRLVYGYGYWGQGTQVTVSS | low polyreactivity |
| QVQLVESGGGLVQAGGSLRLSCAASGSIIARYAMGWYRQAPGKETELVAAINSGTSTNYADSVKGRFTISRDNAKNTVYFQMHCLKPEDTEVYYCNTQWYVDNDTYTQTDYDYWGQGTQVTVSS | low polyreactivity |
| QVQLVESGGGLVQAGGSLRLSCAASGSIIARYAMGWYRQSPGKERELVAAITCSATSTYYADSVKGRFTISRDYAKNTVYLQLNSLKPEDTAVYYWNAGASYFLVISQSRRDYWGQGTQVTVSS | low polyreactivity |
| QVQLVESGGGLVQAGGSLRLSCAASGSIIDYNVMGWYRQAPGKEREFVAGISSTGGSTYYADSVKGRFSNSRDNAKHTVYLQMNSLKPEDTAVYYCAAYWNRAFRLDYWGQGTQVTVSS | high polyreactivity |
| QVQLVESGGGLVQAGGSLRLSCAASGSIIDYYAMGWYRQAPGKERELVADITVTGDGTYYADSVKGRFTISRDNAKNTVYLQMNSLKPEDTAVYYCAADFWLVSFQWDFEYDYWGQGTQVTVSS | low polyreactivity |
| QVQLVESGGGLVQAGGSLRLSCAASGSIIFNNAMGWYRQAPGKERELVAAITTGGSTYYADSVKGRFTISRDNAKNTVYLQMNSLKPEDTAVYYCAAVVVYPYRLGYDYWGQGTQVTVSS | low polyreactivity |
| QVQLVESGGGLVQAGGSLRLSCAASGSIIGFYAMGWYRQAPGKERELVARISKRGGITYYADSVKGRFTISRDNAKNTVDLQMNSLKPEDTAVYYCAVDRRVLWYHMDYWGQGTQVTLSS | high polyreactivity |
| QVQLVESGGGLVQAGGSLRLSCAASGSIIGIYDMGWYRQAPGKERELVAAISWSGGSTYYADSVKGRFTISRDNAKNTVYLQMNSLKPEDTAFYYCAARGHYQYYWGQGTQVTVSS | low polyreactivity |
| QVQLVESGGGLVQAGGSLRLSCAASGSIIGRYAMGWYRQAPGKERELVAAISTGGGRTYYADSVKGRFTISRDSAKNTVYFQLNSLKPEDTAVYYCNAGPYKGWGRMDYWGQGTQVNVSS | high polyreactivity |
| QVQLVESGGGLVQAGGSLRLSCAASGSIIGRYTMGWYRQAPGKERELVAAISRSGGSTYYADSVKGRFTISRDNAKNTVYLQMNSLKPEDTAVYYCAKRTYTPRGERLYSSYDYWGQGTQVTVSS | high polyreactivity |

| Sequence | polyreactivity (PSR sort gate) |
| --- | --- |
| QVQLVESGGGLVQAGGSLRLSCAASGSIIGSNAMGWYRQAPGKERELVAAISRSGTRTYYADSVKGRFTISRDNAKNTVYLQMNSLKPEDTAVYYCATRGGGYWGQGTQVTVSS | high polyreactivity |
| QVQLVESGGGLVQAGGSLRLSCAASGSIIGTNVMGWYRQAPGKERELVASISYRDGTTYYADSVKGRFTISRDNAKNTVYLQMNSLKPEDTAVYYCAVANYYSYYWGQGTQVTVSS | low polyreactivity |
| QVQLVESGGGLVQAGGSLRLSCAASGSIIGYYAMGWYRQAPGKERELVAAISRTGGSTYYADSVKGRFTISRDNAKNTVFLPMNSLKPEDTAVYYCATRTYARHDYWGQGTQGTVSS | high polyreactivity |
| QVQLVESGGGLVQAGGSLRLSCAASGSIILLYAMGWYRQAPGKERELVAAISRSGDSTHYADSVKGRFTISRDNAKNTVYLQMNSLKPEDTAVYYCAADGYHPYGGLYDYCGQGTQVTVSS | low polyreactivity |
| QVQLVESGGGLVQAGGSLRLSCAASGSIIPRNVMGWYRQAPGKERDLVAAISSSGGSTSYADSVKGRFTISRDNAKNTVYLQMNSLKPEDTAVYYCNAPWQRYSAPWGQGYNYWGQGTQVTVSS | high polyreactivity |
| QVQLVESGGGLVQAGGSLRLSCAASGSIIQVYAMGWYRQAPGKERELVASITRTGGSTYYADSVKGSFTISRDNAKNTVYLQMNSLKPEDTAVYYCAARRVTSPFGSDSWGQGTQVTVSS | low polyreactivity |
| QVQLVESGGGLVQAGGSLRLSCAASGSIIRDNAMGWYRQAPGKERELVAAISVSGGRTYYADSVKGRFTISRDNAKNTVYLQMNSLKPEDTAVYYCAALRRPSYPGRFAELDYWGQGTQVTVSS | high polyreactivity |
| QVQLVESGGGLVQAGGSLRLSCAASGSIIRINAMGWYRQAPGKERELVAAISTRSGRTYYADSVKGRFTISRDNAKNTVYLQLNSLKPEDTAFYYCARYRTQASGYGGYHYWGQGTQVTVSS | high polyreactivity |
| QVQLVESGGGLVQAGGSLRLSCAASGSIISGYAMGWYRQAPGQERELVAAISRSGGRTYYADSVKGRFTISRDNAKNTVYLQMNSLKPEETAVYYCAAKIYIPRGYDYWGQGTQVTVSS | high polyreactivity |
| QVQLVESGGGLVQAGGSLRLSCAASGSIISGYAMGWYRQAPGTERELVAAISSSGGRTYYADSVKGRFTISRDNAKNTVYLQMNSLKPEDTAVYYCAAAYTITYDYWGQGTQVTVSS | high polyreactivity |
| QVQLVESGGGLVQAGGSLRLSCAASGSIISRNAMGWYRQAPGKERELVATIRYRGGSTYYADSVKGRFTISRDNAKNTVYLQMNSLKPEDTAVYYCAARRSHPPDPRFRYGYWGQGTQVTVSS | high polyreactivity |
| QVQLVESGGGLVQAGGSLRLSCAASGSIISYYAMGWYRQAPGKEWELVAAISWSGGSTYYADSVKGRFTISRDNAKNTVYLQRNSLTPEDTAVYYCAKYAYPRSRYTPYGSYDYWGQGTQVTVSS | high polyreactivity |
| QVQLVESGGGLVQAGGSLRLSCAASGSIITWYAMGWYRQAPGKERELVAAISNSDSSTYYADSVKGRFTISRDNAKNTVYLQMNILKPEDTAVYYCAAEYGLAWYNFEHWGQGTQVTVSS | high polyreactivity |
| QVQLVESGGGLVQAGGSLRLSCAASGSIIVDNAMGWYRQAHGKERELVAAITDSGGRTYYADSVKGRYTISRDNAKNTVYLQMNSLKPEDTAVYYCNKQYIYTGRYSDGFDYCGQGTQVTVSS | low polyreactivity |
| QVQLVESGGGLVQAGGSLRLSCAASGSIIVNYDMGWYRQAPGKERELVAAISSGGSTKYADSVKGRFTISRDNAKNTVYLQMNSLKPEDTAVYYCAAGKHVTFSYEYRMDYWGQGTQVTVSS | low polyreactivity |
| QVQLVESGGGLVQAGGSLRLSCAASGSIIVRNALGWYRQEPGTERELVAAISWGGGRTYYADSVKGRFTISRDNAKNTVYLQMNSLKPEDTAVYYCAAVHRAVQMGYWGQGTQVTVSS | high polyreactivity |
| QVQLVESGGGLVQAGGSLRLSCAASGSIIVRYAMGWYRQAPGKERALVATITFRDTSTYYADSVKGRFTITRDNAKNTVYLQMNSLKPEDTAVYYCAAVRADLWDIARYDYWGQGTQVTVSS | low polyreactivity |
| QVQLVESGGGLVQAGGSLRLSCAASGSIIYFNAMGWYRQAPGKERELVAAITRSGGSTYYADSVKGRFTISRDNAKNTVYLQMNSLKPEDTAVYYCAAEVWRTYSVEYDYWGQGTQVTVSS | high polyreactivity |
| QVQLVESGGGLVQAGGSLRLSCAASGSIIYHYAMGWYRQAPGKERELVAAITSSGGSTYYADSVKGRFTISRDNAKNTVYLQMNSLKPEDTEVYYCAVESRGRAGGNYWGQGTQVTVSS | low polyreactivity |
| QVQLVESGGGLVQAGGSLRLSCAASGSIIYLYAMGWYRQAPGKERELVAAINDDAGSTYYADSVKGRFTISRDNAKNTVYLQMNSLKPEDTAVYYCNAGSRSTEYDYWGQGTQVTVSS | low polyreactivity |
